Results: PMC10920922

Columns and labels:
[1] = molecular target: TaSG-D1^E286K-GFP (Indian dwarf wheat (Triticum sphaerococcum))
[2] = molecular target: TaSG-D1-GFP (wheat (Triticum aestivum))

share of TaPIF4 associated with and protected by the kinase after 3 h heat stress: TaPIF4 protein still detectable on co-transformation in N. benthamiana leaves (88%) less that of the control (12%) [1]: 76%
share of TaPIF4 associated with and protected by the kinase after 3 h heat stress: TaPIF4 protein still detectable on co-transformation in N. benthamiana leaves (23%) less that of the control (12%) [2]: 11%
Substance: TaPIF4-Myc (natural protein)
